In the test the target is T1, human CD33 extracellular domain (human, UniProt P20138 18-259).
T1 construct: soluble monomeric ECD; also called human CD33 ECD; hCD33
Briefly: BLI Octet, IgG loaded.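 Note: IgGs captured on AHC biosensors, exposed to 100 nM antigen for 3 min association then 3 min dissociation in buffer, kinetics fitted with a 1:1 binding model.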 In general terms: BLI is a label-free optical method that tracks binding on a fibre tip over time.

Experimental: Briefly, ForteBio affinity measurements were performed by loading IgGs on-line onto AHC sensors. Sensors were equilibrated off-line in assay buffer for 30 min and then monitored on-line for 60 seconds for baseline establishment. Sensors with loaded IgGs were exposed to 100 nM antigen for 3 minutes, and afterwards were transferred to assay buffer for 3 min for off-rate measurement. All kinetics were analyzed using the 1:1 binding model.

B1: ADI-11801 IgG (antibody, V domains shown)
VH: QVQLVQSGAEVKKPGASVKVSCKASGYTFSDYYMHWVRQAPGQGLEWMGMINPSWGSTSYAQKFQGRVTMTRDTSTSTVYMELSSLRSEDTAVYYCAREAADGFVGERYFDLWGRGTLVTVSS
VL: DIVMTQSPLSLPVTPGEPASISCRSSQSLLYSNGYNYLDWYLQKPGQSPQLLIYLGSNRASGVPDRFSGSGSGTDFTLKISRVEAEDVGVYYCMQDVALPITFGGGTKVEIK
notes: IgG; also called Ab4
With B1, binding was characterised by a dissociation constant (Kd) of 0.457 nM, the koff came out at 0.0002 s⁻¹ and the on-rate (kon) was 438000 M⁻¹ s⁻¹.

B2: ADI-10173 IgG (antibody, V domains shown)
VH: QVQLVQSGAEVKKPGASVKVSCKASGYTFTSYYMHWVRQAPGQGLEWMGIINPSGGSTTYAQKFQGRVTMTRDTSTSTVYMELSSLRSEDTAVYYCAREAADGFVGERYFDLWGRGTLVTVSS
VL: not shown
notes: IgG; also called Ab22
Consider B2, for which the Kd was 9.7 nM.

B3: ADI-11802 IgG (antibody, V domains shown)
VH: QVQLVQSGAEVKKPGASVKVSCKASGYTFSGYYMHWVRQAPGQGLEWMGMINPYGGSTRYAQKFQGRVTMTRDTSTSTVYMELSSLRSEDTAVYYCAREAADGFVGERYFDLWGRGTLVTVSS
VL: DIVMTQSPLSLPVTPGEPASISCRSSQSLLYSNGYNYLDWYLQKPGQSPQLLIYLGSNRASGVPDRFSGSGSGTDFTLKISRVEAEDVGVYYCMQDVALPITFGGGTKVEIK
notes: IgG; also called Ab23
B3 returned a Kd of 0.453 nM, a koff of 0.0002 s⁻¹ and a kon of 441000 M⁻¹ s⁻¹.

B4: ADI-11828 IgG (antibody, V domains shown)
VH: EVQLVESGGGLVQPGGSLRLSCAASGFTFSSYWMSWVRQAPGKGLEWVANINQDGSEVYYVDSVKGRFTISRDNAKNSLYLQMNSLRAEDTAVYYCARDVGPGIAYQGHFDYWGQGTLVTVSS
VL: DIQMTQSPSSLSASVGDRVTITCRASQSIYYYLNWYQQKPGKAPKLLIYAASSRQSGVPSRFSGSGSGTDFTLTISSLQPEDFATYYCQQVYDTPLTFGGGTKVEIK
notes: IgG; also called Ab27
B4 returned a Kd of 0.81 nM, a koff of 0.000533 s⁻¹ and a kon of 658000 M⁻¹ s⁻¹.

B5: ADI-10163 IgG (antibody, V domains shown)
VH: QVQLQESGPGLVKPSQTLSLTCTVSGGSISSGGYYWSWIRQHPGKGLEWIGSIYYSGSTYYNPSLKSRVTISVDTSKNQFSLKLSSVTAADTAVYYCARDRLDYSYNYGMDVWGQGTTVTVSS
VL: DIQMTQSPSSLSASVGDRVTITCRASQSISSYLNWYQQKPGKAPKLLIYGASSLQSGVPSRFSGSGSGTDFTLTISSLQPEDFATYYCQQVYSAPFTFGGGTKVEIK
notes: IgG; also called Ab17
B5 registered a Kd of 6.8 nM.

B6: ADI-11826 IgG (antibody, V domains shown)
VH: EVQLVESGGGLVQPGGSLRLSCAASGFTFPGYWMSWVRQAPGKGLEWVANINQDGSEVYYVDSVKGRFTISRDNAKNSLYLQMNSLRAEDTAVYYCAREANYYGNVGDDYWGQGTLVTVSS
VL: DIQMTQSPSSLSASVGDRVTITCRASQSIYNYLNWYQQKPGKAPKLLIYAASSTQSGVPSRFSGSGSGTDFTLTISSLQPEDFATYYCQQAFHVPITFGGGTKVEIK
notes: IgG; also called Ab26
B6 came in with a Kd of 0.393 nM, an off-rate (koff) of 0.000243 s⁻¹ and a kon of 619000 M⁻¹ s⁻¹.

B7: ADI-10160 IgG (antibody, V domains shown)
VH: EVQLVESGGGLVQPGGSLRLSCAASGFTFSSYWMSWVRQAPGKGLEWVANINQDGSEKYYVDSVKGRFTISRDNAKNSLYLQMNSLRAEDTAVYYCAREANYYGNVGDDYWGQGTLVTVSS
VL: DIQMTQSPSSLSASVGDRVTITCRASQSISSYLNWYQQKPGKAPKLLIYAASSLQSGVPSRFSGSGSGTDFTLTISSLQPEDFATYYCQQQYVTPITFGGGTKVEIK
notes: IgG; also called Ab15
In turn, B7 yielded a dissociation constant (Kd) of 5.1 nM, a koff of 0.00325 s⁻¹ and an association rate constant (kon) of 638000 M⁻¹ s⁻¹.

B8: ADI-11825 IgG (antibody, V domains shown)
VH: EVQLVESGGGLVQPGGSLRLSCAASGFTFGGYWMSWVRQAPGKGLEWVANINQDGSEEYYVDSVKGRFTISRDNAKNSLYLQMNSLRAEDTAVYYCAREANYYGNVGDDYWGQGTLVTVSS
VL: DIQMTQSPSSLSASVGDRVTITCRASQSIYNYLNWYQQKPGKAPKLLIYAASNLHSGVPSRFSGSGSGTDFTLTISSLQPEDFATYYCQQAFHVPITFGGGTKVEIK
notes: IgG; also called Ab25
For the molecule B8, binding was put at a Kd of 0.54 nM, the koff came to 0.000376 s⁻¹ and the kon was determined as 696000 M⁻¹ s⁻¹.

B9: ADI-11830 IgG (antibody, V domains shown)
VH: EVQLVESGGGLVQPGGSLRLSCAASGFTFSSYWMSWVRQAPGKGLEWVANINTDGSEVYYVDSVKGRFTISRDNAKNSLYLQMNSLRAEDTAVYYCARDVGPGIAYQGHFDYWGQGTLVTVSS
VL: DIQMTQSPSSLSASVGDRVTITCRASQVIYSYLNWYQQKPGKAPKLLIYAASSLKSGVPSRFSGSGSGTDFTLTISSLQPEDFATYYCQQVYDTPLTFGGGTKVEIK
notes: IgG; also called Ab9
B9: the dissociation constant (Kd) is 1.2 nM, the koff is 0.000923 s⁻¹ and the kon came to 770000 M⁻¹ s⁻¹.

B10: ADI-10164 IgG (antibody, V domains shown)
VH: QVQLQESGPGLVKPSETLSLTCAVSGYSISSGYYWGWIRQPPGKGLEWIGSIYHSGSTNYNPSLKSRVTISVDTSKNQFSLKLSSVTAADTAVYYCARLPPWFGFSYFDLWGRGTLVTVSS
VL: EIVLTQSPATLSLSPGERATLSCRASQSVSSYLAWYQQKPGQAPRLLIYDASNRATGIPARFSGSGSGTDFTLTISSLEPEDFAVYYCQQVDNYPPTFGGGTKVEIK
notes: IgG; also called Ab18
With B10, the Kd came out at 4.3 nM, the koff is 0.00148 s⁻¹ and the association rate constant (kon) stood at 344000 M⁻¹ s⁻¹.

B11: ADI-11812 IgG (antibody, V domains shown)
VH: QVQLVQSGAEVKKPGASVKVSCKASGYTFEIYYMHWVRQAPGQGLEWMGIINPSSGSTVYAQKFQGRVTMTRDTSTSTVYMELSSLRSEDTAVYYCARGAGYDDEDMDVWGKGTTVTVSS
VL: DIQMTQSPSSVSASVGDRVTITCRASQGIDSWLAWYQQKPGKAPKLLIYAASSLQSGVPSRFSGSGSGTDFTLTISSLQPEDFATYYCQQAHSYPLTFGGGTKVEIK
notes: IgG; also called Ab24
In turn, B11 yielded a Kd of 1.91 nM, a koff of 0.000315 s⁻¹ and a kon of 166000 M⁻¹ s⁻¹.

B12: ADI-10161 IgG (antibody, V domains shown)
VH: EVQLVESGGGLVQPGGSLRLSCAASGFTFSSYWMSWVRQAPGKGLEWVANINQDGSEKYYVDSVKGRFTISRDNAKNSLYLQMNSLRAEDTAVYYCAREGGDSWYHAFDIWGQGTMVTVSS
VL: DIQMTQSPSSVSASVGDRVTITCRASQGISSWLAWYQQKPGKAPKLLIYAASNLQSGVPSRFSGSGSGTDFTLTISSLQPEDFATYYCQQKLSLPLTFGGGTKVEIK
notes: IgG; also called Ab16
B12 displayed a Kd of 3.7 nM, an off-rate constant (koff) of 0.00217 s⁻¹ and a kon of 587000 M⁻¹ s⁻¹.

B13: ADI-10177 IgG (antibody, V domains shown)
VH: EVQLVESGGGLVQPGGSLRLSCAASGFTFSSYWMSWVRQAPGKGLEWVANIKQDGSEKYYVDSVKGRFTISRDNAKNSLYLQMNSLRAEDTAVYYCARPLNAGELDVWGQGTMVTVSS
VL: DIQMTQSPSTLSASVGDRVTITCRASQSISSWLAWYQQKPGKAPKLLIYEASSLESGVPSRFSGSGSGTEFTLTISSLQPDDFATYYCQQLESYPLTFGGGTKVEIK
notes: IgG; also called Ab2
In turn, B13 returned a Kd of 3.6 nM, a koff of 0.00214 s⁻¹ and an on-rate constant (kon) of 601000 M⁻¹ s⁻¹.

B14: ADI-11815 IgG (antibody, V domains shown)
VH: QVQLVQSGAEVKKPGASVKVSCKASGYTFGTYYMHWVRQAPGQGLEWMGIINPSRGSTVYAQKFQGRVTMTRDTSTSTVYMELSSLRSEDTAVYYCARGAGYDDEDMDVWGKGTTVTVSS
VL: DIQMTQSPSSVSASVGDRVTITCRASQGIDSWLAWYQQKPGKAPKLLIYAASSLQSGVPSRFSGSGSGTDFTLTISSLQPEDFATYYCQQAHSYPLTFGGGTKVEIK
notes: IgG; also called Ab7
Regarding B14, the Kd was determined as 1.44 nM, the off-rate constant (koff) worked out at 0.000229 s⁻¹ and the kon stood at 159000 M⁻¹ s⁻¹.

B15: ADI-10159 IgG (antibody, V domains shown)
VH: EVQLVESGGGLVQPGGSLRLSCAASGFTFSSYGMSWVRQAPGKGLEWVANIKQDGSEKYYVDSVKGRFTISRDNAKNSLYLQMNSLRAEDTAVYYCAREGGPYYDSSGYFVYYGMDVWGQGTTVTVSS
VL: DIQMTQSPSTLSASVGDRVTITCRASQSISSWLAWYQQKPGKAPKLLIYDASSLESGVPSRFSGSGSGTEFTLTISSLQPDDFATYYCQQYESFPTFGGGTKVEIK
notes: IgG; also called Ab1; G59
With B15, the Kd was at most 0.575 nM, the off-rate (koff) was at most 0.0002 s⁻¹ and the kon came to 348000 M⁻¹ s⁻¹.

As a reminder, the Kd is the free concentration of one partner at which half of the binding sites on the other are occupied at equilibrium, for simple one-to-one binding. Read a high Kd as weaker binding. What is called koff is the first-order rate constant of dissociation. Low readings indicate slow dissociation, high ones fast dissociation. What is called kon is a measure of how fast the partners come together. Lower therefore signals slower complex formation.

The values are drawn from patent publication US20220380459A1 (DRAGONFLY THERAPEUTICS, published 2022).
